In article PMC9007350, “Aurintricarboxylic acid is a canonical disruptor of the TAZ-TEAD transcriptional complex” (PLoS ONE, 2022):
Ends that are not written are not given here.

Experiments:
Assay in all cases: fluorescence polarisation; TEAD4 (217-434) at 350 nM, carboxyfluorescein peptide probe at 25 nM; disruptors titrated 0-150 uM to the probe-TEAD complex; 25 C, 20 min
Details in all cases: both partners purified
[1] = target: YAP/TAZ-binding domain of human TEAD4 (217-434), acylation state not stated (human, UniProt Q15561 217-434)
[2] = target: T1, YAP/TAZ-binding domain of human TEAD4 (217-434), acylated form (human, UniProt Q15561 217-434, acylated)
T1 construct: also called acylated TEAD

[3] = target: T2, YAP/TAZ-binding domain of human TEAD4 (217-434), deacylated form (human, UniProt Q15561 217-434)
T2 construct: also called deacylated TEAD
T2 sequence (Q15561 217-434): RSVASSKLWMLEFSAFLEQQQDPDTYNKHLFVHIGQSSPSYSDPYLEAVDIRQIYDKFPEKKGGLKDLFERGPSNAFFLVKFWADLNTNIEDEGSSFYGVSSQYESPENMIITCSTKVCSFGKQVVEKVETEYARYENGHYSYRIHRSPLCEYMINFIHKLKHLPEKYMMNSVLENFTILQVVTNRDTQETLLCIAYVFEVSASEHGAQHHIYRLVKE

Sequence of YAP/TAZ-binding domain of human TEAD4 (217-434), acylation state not stated (Q15561 217-434): as above
T1 sequence (Q15561 217-434): as above

B1: Human YAP (61-100) peptide probe, carboxyfluorescein-labelled (peptide, UniProt P46937 61-100, looked up)
peptide: SETDLEALFNAVMNPKTANVPQTVPMRLRKLPDSFFKPPE
modifications: carboxyfluorescein label (position not given)
notes: human YAP (Yes-associated protein) residues 61-100; also called YAP peptide probe
**Q.** Does B1 bind [1]?
**A.** Result: binds

B2: Mouse Vgll1 (26-51) peptide probe, carboxyfluorescein-labelled (peptide, UniProt Q99NC0 26-51, looked up)
peptide: GSVIFTYFEGDINSMVDEHFSRALRN
modifications: also: carboxyfluorescein label, position not given here
notes: mouse Vgll1 residues 26-51; also called Vgll1 peptide probe
**Q.** Does B2 bind [1]?
**A.** Result: binds

B3: Human TAZ (23-57) peptide probe, carboxyfluorescein-labelled (peptide, UniProt Q9GZV5 23-57, looked up)
peptide: DLDTDLEALFNSVMNPKPSSWRKKILPESFFKEPD
modifications: carboxyfluorescein label (position not given)
notes: human TAZ residues 23-57, UniProt Q9GZV5; also called TAZ peptide probe; TAZ probe
**Q.** What does the source list for B3?
**A.** binding result [2]: binds; binding result [3]: binds
